Here are results for 14 molecules from patent US20190127480A1 (Regeneron, published 2019).

Test [1] deals with T1, human CD3 expressed on cells (Jurkat cells; human T-cells of PBMC) (human, UniProt P09693 23-182; P20963 22-164). Briefly: cell-based or functional assay.
The target in test [2] is T1, human CD3 expressed on cells (Jurkat …). Put plainly: cell-based or functional assay. The source holds these as a separate data set.
Test [3] shares this target. Put plainly: FACS titration on Jurkat cells (CD3+ human T-cell line). How it is done:
(§1) FACS data was acquired using the following protocol: Cells at 2×10⁵ per well were incubated with serially diluted antibodies for 30 min on ice. Post incubation, cells were washed and secondary antibody was added and incubated for an additional 30 minutes. After incubation, cells were washed, re-suspended in cold PBS containing 1% BSA and analyzed by flow cytometry with viable Jurkat cells gated by side and forward scatters. The EC₅₀s for cell binding titration were determined using Prism software with values calculated using a 4-parameter non-linear regression analysis.

Test [4] has as its target T2, human CD3 expressed on cells (Jurkat cells, a CD3+ human T-cell line; human PBMC T cells) (human, UniProt P07766 23-207; P04234 22-171). Briefly: cell-based or functional assay.
Test [5] addresses T2, human CD3 expressed on cells (Jurkat …). Briefly: FACS on Jurkat cells. How it is done: as §1
Test [6] deals with T3, Soluble heterodimeric CD3 protein (hCD3-epsilon/hCD3-delta) with either a human Fc tag (hFcΔAdp/hFc) or a … (human, UniProt P07766 23-126; P04234 22-105).
T3 construct: also called hCD3ε/δ; not shown: Fc tag: human (hFcΔAdp/hFc)
T3 sequence (P07766 23-126 limits assumed, stated change not applied, chain 1 of 2): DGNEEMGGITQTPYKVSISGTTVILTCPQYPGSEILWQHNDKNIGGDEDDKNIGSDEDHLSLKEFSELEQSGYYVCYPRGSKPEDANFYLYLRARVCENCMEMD
T3 sequence (P04234 22-105 limits assumed, stated change not applied, chain 2 of 2): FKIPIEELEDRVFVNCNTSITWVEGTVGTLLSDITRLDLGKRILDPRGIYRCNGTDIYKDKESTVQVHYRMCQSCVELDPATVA
Put plainly: SPR Biacore 25C antigen-capture. In short, it runs like this:
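Rate constants fitted to a 1:1 model, giving KD as kd/ka and dissociative half-life as ln2/(60·kd) minutes. Antibodies flowed over CD3ε/δ heterodimer captured on anti-human or anti-mouse Fc surfaces, run on a Biacore T200 at 25 °C.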

T2 sequence (P07766 23-207 limits assumed, chain 1 of 2): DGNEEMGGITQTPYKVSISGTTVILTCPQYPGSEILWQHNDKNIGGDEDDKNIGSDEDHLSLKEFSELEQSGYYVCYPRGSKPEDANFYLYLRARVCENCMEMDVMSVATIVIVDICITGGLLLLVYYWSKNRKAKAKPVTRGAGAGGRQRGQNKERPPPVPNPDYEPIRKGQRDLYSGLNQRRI
T2 sequence (P04234 22-171 limits assumed, chain 2 of 2): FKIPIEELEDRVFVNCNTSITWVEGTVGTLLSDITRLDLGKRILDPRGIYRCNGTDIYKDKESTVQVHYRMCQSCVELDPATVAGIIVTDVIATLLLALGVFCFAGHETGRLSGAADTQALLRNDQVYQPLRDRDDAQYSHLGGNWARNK
T1 sequence (chain, as listed by the source, chain 1 of 4): as the sequence (P07766 23-207 limits assumed, chain 1 of 2) above
T1 sequence (chain, as listed by the source, chain 2 of 4): as the sequence (P04234 22-171 limits assumed, chain 2 of 2) above
T1 sequence (P09693 23-182, chain 3 of 4): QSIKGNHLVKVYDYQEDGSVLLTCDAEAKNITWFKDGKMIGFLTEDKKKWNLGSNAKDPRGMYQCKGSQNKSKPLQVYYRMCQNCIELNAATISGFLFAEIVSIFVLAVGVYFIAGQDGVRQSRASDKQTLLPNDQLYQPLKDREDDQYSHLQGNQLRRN
T1 sequence (P20963 22-164, chain 4 of 4): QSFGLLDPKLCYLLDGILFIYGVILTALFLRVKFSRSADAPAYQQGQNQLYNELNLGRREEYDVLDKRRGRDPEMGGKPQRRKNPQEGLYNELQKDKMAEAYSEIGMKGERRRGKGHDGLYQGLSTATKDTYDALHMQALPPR

B1: H1H5753B (antibody, V domains shown)
VH: QVQLVESGGGLVQPGGSLRLSCAASYFTFSSFAMNWVRQAPGQGLEWVSAISGRVSAISGSGGITYYADSVKGRFIISRDNSKNTLYLQMSGLRAEDTAVYYCAKGPYLTTVTPFDYWGQGTLVTVSS
VL: DIQLTQSPSSVSASVGDRVTITCRASQGISSWLAWYQQKPGKAPKLLIYAVSSLQNGVPSRFSGSGSGTDFTLTISSLQPEDFATYYCQQANSFPFTFGPGTKLEIK
Consider B1, for which, in test [1], the “U937 Cytotoxicity Human T-cells” value was found to be 379 pM. Also, in test [2], the “EC50 [M] hPBMC Proliferation” value was found to be 9.14e-11 M.

B2: H1H5782P (antibody, human IgG1, V domains shown)
VH: EVQLVESGGGLVQPGRSLRLSCAASGFTFDDYAMHWVRQAPGKGLEWVSGISWNSGSKDYADSVKGRFTISRDNTRNSLFLQMNSLRTEDTALYYCAKDKSGYGSFYYGMDVWGQGTTVTVSS
VL: not shown
notes: H1H: human IgG1 Fc
As to B2, in test [1], the “U937 Cytotoxicity Human T-cells” value amounted to 5.18 pM. Moreover, the binding result in test [3] is on record as “no binding”. Also, in test [2], the “EC50 [M] hPBMC Proliferation” value stood at 5.17e-12 M.

B3: H2M3540N (antibody, mouse IgG2, V domains shown)
VH: QVHLEESGGGVVQPGRSLRLSCSASGFTFSSYAMHWVRQAPGKGLEWVAVIWYDGTNKYYLDSVKGRFTISRDNSKNTLFLQMNSLRAEDTAVYYCARDRGSIITHWGQGTLVTVSS
VL: DIQMTQSPSSLSASIGDRVTITCRASQNISSYLNWYQQKPGKAPKLLIYAASSLQSGVPSRFSGSGSGTDFTLTISSLQPEDFATYYCQQTYSTPPITFGQGTRLEIK
notes: H2M: mouse IgG2 Fc, human variable regions; divalent
For the molecule B3, the “EC50 [M] hPBMC Proliferation” value in test [4] was 3.16e-12 M. In test [5], the response was half-maximal at 3990 pM (EC50). Moreover, in test [6], the Kd – broadly, the constant that tells how readily two partners part at equilibrium – turned out to be 231 pM; the “T½” value is 20 min; the koff (in general, a measure of how fast the partners let go of each other) was 0.000587 s⁻¹; the kon (usually a measure of how fast the partners come together) came out at 2.55e+06 M⁻¹ s⁻¹.

B4: H2M3563N (antibody, mouse IgG2, V domains shown)
VH: EVHLVESGGGLVQPGRSLRLSCAASGFTFDDYTMHWVRQAPGKGLEWVSDISWNSGSIGYADSVKGRFTVSRDNAKNSLYLQMNSLRGEDTALYYCAKDMSGYGHYGKYGMDVWGQGTTVTVSS
VL: DIQMTQSPSSLSASVGDRVTITCRASQSIRSYLNWYQQKPGKVPKLLIYAASSLQSGVPSRFSGSGSGTDFTLTINSLQPDDFATYYCQQTYSNPPITFGQGTRLEIK
notes: as for B3
Turning to B4, in test [4], the “EC50 [M] hPBMC Proliferation” value worked out at 7.74e-12 M. Also, the EC50 (usually the concentration at which the effect is half-maximal) in test [5] amounted to 1070 pM. In addition, in test [6], the Kd is 77.3 pM, the “T½” value came out at 242 min, the koff was 4.77e-05 s⁻¹ and the kon stood at 616000 M⁻¹ s⁻¹.

B5: H2M3543N (antibody, mouse IgG2, V domains shown)
VH: EVQLVESGGGLVQPGRSLRLSCAASGFTFDDYTMHWVRQAPGKGLEWVSDISWNSGSIGYADSVKGRFTVSRDNAKNSLYLQMNSLRGEDTALYYCAKDMSGYAHYGYYGMDVWGQGTTVTVSS
VL: DIQMTQSPSSLSASVGDRVTITCRASQSIRNYLNWYQQKPGKVPKLLIYAASSLQSGVPSRFSGSGSGTDFTLTISSLQPEDFATYYCQQSYSNPPITFGQGTRLEIK
notes: as for B3
Take B5: the “EC50 [M] hPBMC Proliferation” value in test [4] amounted to 6.12e-12 M. Moreover, in test [5], the EC50 amounted to 5630 pM. In addition, in test [6], the affinity, expressed as Kd, was 653 pM; the “T½” value was 145 min; the koff was determined as 7.96e-05 s⁻¹; the kon came out at 122000 M⁻¹ s⁻¹.

B6: H2M2777N (antibody, mouse IgG2, V domains shown)
VH: QVQLVESGGGVVQPGRSLRLSCIASGFTFRSYGMHWVRQAPGKGLEWVAMIYYDGNNKYYADSVRGRFTISRDNSKNTLYLQMNSLRADDTAVYFCARGPGYNWLDPWGQGTLVTVSS
VL: EIVMTQSPATLSVSPGERATLSCRASQSVSSNLAWYQQKPGQAPRLLIYGASTRATGIPARFSGSGSGTEFTLTISSLQSEDFAVYYCQQYNNRPLTFGGGTKVEIK
notes: as for B3
Regarding B6, the “EC50 [M] hPBMC Proliferation” value in test [4] worked out at 2.51e-11 M. This molecule also had an EC50 in test [5] of 2160 pM. In test [6], the Kd was determined as 554 pM, the “T½” value came out at 36 min, the koff was found to be 0.000321 s⁻¹ and the kon stood at 580000 M⁻¹ s⁻¹.

B7: H2M2862N (antibody, mouse IgG2, V domains shown)
VH: QVQLVESGGGVVQPGRSLRLSCAASGFTFRSYGMHWVRQAPGKGLEWVAMIYYDGNNKKYADSVRGRFTISRDNSKNTLYLQMNSLRVEDTAVYFCARGPGYNWLDPWGQGTLVTVSS
VL: EIVMTQSPATLSVSPGERATLSCRASQSVSRNLAWYQQKPGQAPRLLIYGASTRATDIPARFSGSGSGTEFILNISSLQSEDFALYYCQQYSNWPLTFGGGTEVEIK
notes: as for B3
Consider B7, for which the “EC50 [M] hPBMC Proliferation” value in test [4] is 6.72e-13 M. The molecule further showed an EC50 in test [5] of 7680 pM. In addition, in test [6], the Kd turned out to be 541 pM, the “T½” value amounted to 36 min, the koff worked out at 0.000321 s⁻¹ and the kon came out at 591000 M⁻¹ s⁻¹.

B8: H2M3541N (antibody, mouse IgG2, V domains shown)
VH: EVQLVESGGGLVRPGRSLRLSCAASGFTFDDYTMHWVRQAPGKGLEWVSDISWNSGTIGYADSVKGRFTISRDNAKNSLYLQMNSLRPEDTALYYCAKDMSGYAHYYYYGMDVWGQGTTVTVSS
VL: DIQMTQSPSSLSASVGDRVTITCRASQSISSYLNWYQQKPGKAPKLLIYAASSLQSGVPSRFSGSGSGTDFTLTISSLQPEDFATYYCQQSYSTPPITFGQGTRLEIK
notes: as for B3
Regarding B8, in test [4], the “EC50 [M] hPBMC Proliferation” value was 6.4e-12 M. In addition, a half-maximal effect in test [5] (EC50) was put at 3700 pM. In test [6], binding was put at a Kd of 13800 pM, the “T½” value was 10 min, the koff came out at 0.00116 s⁻¹ and the kon worked out at 84000 M⁻¹ s⁻¹.

B9: H1H5755B (antibody, human IgG1, V domains shown)
VH: EVQLVESGGGVVQPGRSLRLSCAASGFTFSNYGMHWVRQAPGKGLEWVTVILHDGSYKYYADSVKGRFTISRDNSKNTLHLQMNSLRTEDTAVYYCAKGPMFRGVPYNHYYGMDVWGQGTTVTVSS
VL: DIQMTQSPSSLSASVGDRVTITCRASQGIRNDLGWYQQKPGKAPKRLIYAASSLQSGVSSRFSGSGSGTEFTLTISSLQPEDFATYYCLQHNSYPYTFGQGTKVEIKR
notes: H1H: human IgG1 Fc
Regarding B9, the “U937 Cytotoxicity Human T-cells” value in test [1] stood at 51.6 pM. The EC50 in test [3] worked out at 1230 pM. Moreover, the “EC50 [M] hPBMC Proliferation” value in test [2] was 4.24e-12 M.

B10: H1H5757B (antibody, human IgG1, V domains shown)
VH: EVQLVESGGGVVQPGRSLRLSCAASGFTFSSYGMHWVRQAPGKGLEWVTVILHDGSNRYSADSVKGRFTISRDNSKNTLYLQMNILRVEDTAVYYCTKGAMVRGVPYNHYYGMDVWGQGTTVTVSS
VL: DIQMTQSPSSLSASVGDRVTITCRASQGIRNDLGWYQQKPGKAPKRLIYAASILQSGVPSRFSGSGSGTEFTLTISSLQPEDFATYYCLQHNSYPYTFGQGTKLEIKR
notes: H1H: human IgG1 Fc
Take B10: in test [1], the “U937 Cytotoxicity Human T-cells” value is 96.5 pM. Further, in test [3], the EC50 came out at 3380 pM. Besides, the “EC50 [M] hPBMC Proliferation” value in test [2] amounted to 4.86e-12 M.

B11: H1H5758B (antibody, human IgG1, V domains shown)
VH: EVQLVESGGGVVQPGRSLRLSCAASGFTFSSYGMHWVRQAPGKGLEWVTVILHDGSNRYYADSVKGRFTISRDNSKNTLYLQMNILRAEDTAVYYCTKGAMVRGVPYNHYYGMDVWGQGTTVTVSS
VL: DIVMTQSPSSLSASVGDRVTITCRASQGIRNDLGWYQQKPGKAPKRLIYAASNLQSGVPSRFSGSGSGTEFTLTISSLQPEDFATYYCLQHNSYPYTFGQGTKLEIKR
notes: H1H: human IgG1 Fc
For B11, the “U937 Cytotoxicity Human T-cells” value in test [1] came out at 88600 pM. In test [3], this molecule gave a concentration for a half-maximal effect (EC50) of 1900 pM. Also, the “EC50 [M] hPBMC Proliferation” value in test [2] is 2.13e-12 M.

B12: H1H5752P (antibody, human IgG1, V domains shown)
VH: QVQLVESGGGVVQPGRSLRPSCAASGFSFRDYGMHWVRQAPGKGLEWMAHIWYNGKNKYYADSVKGRFTISRDNSKNTLYLQMNSLRPEDTAVYYCARDGVSARGTPFDYWGQGTLVTVSS
VL: ETTLTQSPAFMSAAPGDKVSISCIASQYIDDDVNWYQQKPGETAIFIIQEASTLVPGISPRFSGSGYGTHFTLTINNIDSEDAAFYFCLQHDNFPYTFGQGTKLEIK
notes: H1H: human IgG1 Fc
Take B12: in test [1], the “U937 Cytotoxicity Human T-cells” value stood at 18.5 pM. Moreover, the EC50 in test [3] was determined as 343 pM. Also, the “EC50 [M] hPBMC Proliferation” value in test [2] was found to be 1.09e-12 M.

B13: H2M3547N (antibody, mouse IgG2, V domains shown)
VH: EAQLVESGGGLVQPGRSLRLSCTTSGFTFDDYTMHWVRQAPGKGLEWISDISWNGGTKGYADSVKGRFTISRDNAKNSLYLQMDSLRGEDTALYYCVKDKSGYGHFYFGLDVWGQGTTVTVSS
VL: DIQMTQSPSSLTASVGDRVTFTCRASQSISRHLSWYQQKPGKAPKLLIYAASSLESGVPSRFSGSGSGTDFTLTISSLHPEDFATYYCQQSYSNPPITFGQGTRLEIK
notes: as for B3
Regarding B13, the “EC50 [M] hPBMC Proliferation” value in test [4] was 5.02e-12 M. The molecule also displayed an EC50 in test [5] of 2710 pM. Besides, in test [6], the dissociation constant Kd is at most 21.5 pM, the “T½” value came out at 1160 min and the koff is at most 1e-05 s⁻¹.

B14: H1H5763P (antibody, human IgG1, V domains shown)
VH: QVQLVESGGGVVQPGRSLRLSCAASGLTFSSYGMHWVRQAPGKGLEWVAVISYDGSNKYYTDSVKGRFTISRDNSKNTLYLQMNSLRAEDTAVYYCAKGAMVRGVPYNYYYGMDVWGQGTTVTVSS
VL: DIQMTQSPSSLSASVGDRVTITCRASQGIRNDLGWYQQKPGKAPKRLIYAASSLQSGVPSRFSGSGSGTEFTLTISSLQPEDFATYYCLQHNSYPYTFGQGTKLEIK
notes: H1H: human IgG1 Fc
In the case of B14, the EC50 in test [3] worked out at 2760 pM. Besides, in test [2], the “EC50 [M] hPBMC Proliferation” value is 3.11e-13 M.
